Paper PMC10779054

Experiments:
[1] = target: SARS-CoV-2 nucleocapsid protein (SARS-CoV-2, UniProt P0DTC9 1-419); test: aptamer-immuno-PCR (mAb sandwich, qPCR); PBS + 0.1% Tween 20 (PBST); 1 h at 21 C ([…]) or 37 C ([…]; settings: protein: commercial; chain copies: 2
[2] = target: Taq DNA polymerase (Thermus aquaticus, UniProt P19821 1-832); test: qPCR of aptamer bound to immobilized protein; 50 nM aptamer; 0.5 ug Taq/well; 0.1% methylcellulose, BSA or Tween 20 block; PBS + 0.1% Tween 20 (PBST); 1 h at 21 C (44/70-Taq) or 37 C (NC aptamer-nucleocapsid); wells blocked with 0.1% BSA, Tween 20 or methylcellulose; PBST washes; settings: protein: commercial

| Binder | binding result [1] | binding result [2] |
| --- | --- | --- |
| NC aptamer (ssDNA) DNA: GCAATGGTACGGTACTTCCGGATGCGGAAACTGGCTAATTGGTGAGGCTGGGGCGGTCGTGCAGCAAAAGTGCACGCTACTTTGCTAA | binds | – |
| 44/70 aptamer (ssDNA) DNA: CCTTGAACCTGTGCCATTTGCTAATTGAGACTATTATGGGCTTTTTAGTCGAACAGTAGGAAGATGGAGG | – | binds |
